This note sets out measurements from patent US20230272069A1 (INSTITUTE OF HEMATOLOGY AND BLOOD DISEASES HOSPITAL CHINESE …, published 2023).

For one assay, the target named is T1, CD19 antigen molecule (human, UniProt P15391 20-556).
T1 sequence (looked up): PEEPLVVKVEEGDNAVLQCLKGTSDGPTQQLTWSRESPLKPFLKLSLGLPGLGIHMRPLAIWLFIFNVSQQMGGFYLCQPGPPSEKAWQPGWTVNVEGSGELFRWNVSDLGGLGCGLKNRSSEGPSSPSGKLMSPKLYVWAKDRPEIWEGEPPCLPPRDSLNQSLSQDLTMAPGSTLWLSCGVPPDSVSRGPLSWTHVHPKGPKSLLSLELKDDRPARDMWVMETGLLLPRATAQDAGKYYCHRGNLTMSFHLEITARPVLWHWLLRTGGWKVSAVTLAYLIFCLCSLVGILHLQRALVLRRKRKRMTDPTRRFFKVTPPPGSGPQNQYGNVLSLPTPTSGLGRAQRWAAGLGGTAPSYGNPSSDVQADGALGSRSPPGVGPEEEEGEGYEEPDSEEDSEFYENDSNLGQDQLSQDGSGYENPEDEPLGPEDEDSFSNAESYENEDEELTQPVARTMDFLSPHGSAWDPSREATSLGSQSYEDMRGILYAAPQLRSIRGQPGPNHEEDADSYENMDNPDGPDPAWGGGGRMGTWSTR
As to the kind of experiment: cell-based or functional assay.

A further assay deals with T2, CD22 antigen molecule (human, UniProt P20273 20-847).
T2 sequence (looked up): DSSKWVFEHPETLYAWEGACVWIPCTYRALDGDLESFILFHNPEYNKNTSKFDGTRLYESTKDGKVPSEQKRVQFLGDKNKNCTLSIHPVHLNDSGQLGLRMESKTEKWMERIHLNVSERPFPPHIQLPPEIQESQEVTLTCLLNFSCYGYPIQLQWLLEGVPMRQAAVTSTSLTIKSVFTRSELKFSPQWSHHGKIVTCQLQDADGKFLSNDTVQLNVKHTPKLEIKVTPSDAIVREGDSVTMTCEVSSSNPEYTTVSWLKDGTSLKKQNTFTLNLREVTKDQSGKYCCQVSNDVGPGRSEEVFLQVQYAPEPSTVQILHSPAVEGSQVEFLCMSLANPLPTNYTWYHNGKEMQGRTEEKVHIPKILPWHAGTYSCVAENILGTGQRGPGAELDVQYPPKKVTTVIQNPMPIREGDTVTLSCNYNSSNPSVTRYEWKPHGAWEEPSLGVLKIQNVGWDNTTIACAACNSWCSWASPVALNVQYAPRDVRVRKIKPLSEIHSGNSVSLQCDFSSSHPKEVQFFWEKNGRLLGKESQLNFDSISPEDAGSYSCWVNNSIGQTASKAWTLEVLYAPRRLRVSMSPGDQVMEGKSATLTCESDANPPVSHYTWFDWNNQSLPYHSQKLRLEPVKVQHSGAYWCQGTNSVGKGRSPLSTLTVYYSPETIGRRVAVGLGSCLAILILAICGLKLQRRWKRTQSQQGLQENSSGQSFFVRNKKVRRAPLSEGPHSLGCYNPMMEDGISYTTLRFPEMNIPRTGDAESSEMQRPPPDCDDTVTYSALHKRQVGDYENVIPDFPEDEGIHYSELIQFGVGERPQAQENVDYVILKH
Put plainly: cell-based or functional assay.

B1: CD22 scFv-CD19 scFv-CD8α-4-1BB-CD3ζ CAR (other)
chain: DIELTQSPSSLAVSVGEKVTMSCKSSQSLLYSSNQKNYLAWYQQKPGQSPKLLIYWASTRESGVPDRFTGSGSGTDFTLTVSSVKAEDLAVYYCQQSYSYPFTFGSGTKLEIKRGGGGSGGGGSGGGGSQVKLQQSGPELVKPGASVKISCKASGYDFSISWMNWVRQRPGQGLEWIGRIYPGDGDSNYNGKFEGKATLTADKSSSTAYMQLSGLTSVDSAVYFCARTTTMIALYAMDYWGQGTTVTVSSEAAAKEAAAKEAAAKEAAAKEAAAKDIVLTQSPKFMSTSVGDRVSVTCKASQNVGTNVAWYQQKPGQSPKPLIYSATYRNSGVPDRFTGSGSGTDFTLTITNVQSKDLADYFCQQYNRYPYTSGGGTKLEIKRGGGGSGGGGSGGGGSQVQLQQSGAELVRPGSSVKISCKASGYAFSSYWMNWVKQRPGQGLEWIGQIYPGDGDTNYNGKFKGQATLTADKSSSTAYMQLSGLTSEDSAVYFCARKTISSVVDFYFDYWGQGTTLTVSSEFTTTPAPRPPTPAPTIASQPLSLRPEACRPAAGGAVHTRGLDFACDIYIWAPLAGTCGVLLLSLVITLYKRGRKKLLYIFKQPFMRPVQTTQEEDGCSCRFPEEEEGGCELRVKFSRSADAPAYQQGQNQLYNELNLGRREEYDVLDKRRGRDPEMGGKPRRKNPQEGLYNELQKDKMAEAYSEIGMKGERRRGKGHDGLYQGLSTATKDTYDALHMQALPPR
With B1, the “degranulation level (CD107a on GFP+ cells) after co-culture with MV4-11-CD19 cells, E:T 1:1, 4 h” value with CD19 antigen molecule was not below 25%. For the same molecule, in the assay with CD22 antigen molecule, the “degranulation level (CD107a on GFP+ cells) after co-culture with MV4-11-CD22 cells, E:T 1:1, 4 h” value was not below 15%.

B2: CD19 VL-CD22 VL-CD22 VH-CD19 VH-CD8α-4-1BB-CD3ζ CAR (other)
chain: DIVLTQSPKFMSTSVGDRVSVTCKASQNVGTNVAWYQQKPGQSPKPLIYSATYRNSGVPDRFTGSGSGTDFTLTITNVQSKDLADYFCQQYNRYPYTSGGGTKLEIKRGGGGSDIELTQSPSSLAVSVGEKVTMSCKSSQSLLYSSNQKNYLAWYQQKPGQSPKLLIYWASTRESGVPDRFTGSGSGTDFTLTVSSVKAEDLAVYYCQQSYSYPFTFGSGTKLEIKRGSTSGSGKPGSGEGSTKGQVKLQQSGPELVKPGASVKISCKASGYDFSISWMNWVRQRPGQGLEWIGRIYPGDGDSNYNGKFEGKATLTADKSSSTAYMQLSGLTSVDSAVYFCARTTTMIALYAMDYWGQGTTVTVSSGGGGSQVQLQQSGAELVRPGSSVKISCKASGYAFSSYWMNWVKQRPGQGLEWIGQIYPGDGDTNYNGKFKGQATLTADKSSSTAYMQLSGLTSEDSAVYFCARKTISSVVDFYFDYWGQGTTLTVSSEFTTTPAPRPPTPAPTIASQPLSLRPEACRPAAGGAVHTRGLDFACDIYIWAPLAGTCGVLLLSLVITLYKRGRKKLLYIFKQPFMRPVQTTQEEDGCSCRFPEEEEGGCELRVKFSRSADAPAYQQGQNQLYNELNLGRREEYDVLDKRRGRDPEMGGKPRRKNPQEGLYNELQKDKMAEAYSEIGMKGERRRGKGHDGLYQGLSTATKDTYDALHMQALPPR
Regarding B2, in the assay with CD19 antigen molecule, the “degranulation level (CD107a on GFP+ cells) after co-culture with MV4-11-CD19 cells, E:T 1:1, 4 h” value is not below 25%. Further, in the assay with CD22 antigen molecule, the “degranulation level (CD107a on GFP+ cells) after co-culture with MV4-11-CD22 cells, E:T 1:1, 4 h” value is not below 15%.
